Measurements from patent US20250313631A1 (HUMMINGBIRD BIOSCIENCE PTE, published 2025).
Substitutions are numbered along the chain they refer to. Like-named read-outs stand apart in the source and are kept apart here. Values belong to the binder of their own block, whether it stands above or below them.

Experiments:
[1] = target: T1, human VISTA expressed on cells (human, UniProt Q9H7M9 33-311); experiment: flow cytometry, FITC anti-Fc detection; HEK293 VISTA O/E against HEK293
T1 construct: also called HEK293 VISTA O/E; HEK293T or HEK293-6E cells overexpressing human VISTA
Description: (§1) The cells were washed thrice with FACS buffer (PBS with 5 mM EDTA and 0.5% BSA) and resuspended in FITC-conjugated anti-FC antibody (Invitrogen, USA) for 40 min at 2-8° C. Cells were washed again and resuspended in 200 μL of FACS flow buffer (PBS with 5 mM EDTA) for flow cytometric analysis using MACSQuant 10 (Miltenyi Biotec, Germany). After acquisition, all raw data were analyzed using Flowlogic software. Cells were gated using forward and side scatter profile and Median of Fluorescence Intensity (MFI) value was determined for native and overexpressing cell populations.

[2] = target: T2, recombinant human VISTA (His-tagged) (human, UniProt Q9H7M9 33-194); experiment: ELISA, target protein coated, absorbance 450 nm
T2 construct: bought soluble protein (Sino Biological); also called hVISTA; human VISTA polypeptide

[3] = target: T3, recombinant mouse VISTA (His-tagged) (mouse, UniProt Q9D659 33-191); experiment: ELISA, target protein coated, absorbance 450 nm
T3 construct: also called murine VISTA; mVISTA
T3 sequence (looked up): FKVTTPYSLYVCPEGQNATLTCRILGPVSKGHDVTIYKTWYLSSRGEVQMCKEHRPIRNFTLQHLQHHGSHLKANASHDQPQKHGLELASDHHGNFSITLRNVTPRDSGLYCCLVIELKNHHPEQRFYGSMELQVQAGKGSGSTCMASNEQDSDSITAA

human PD-L1 [4] = target: T4, human PD-L1 (human, UniProt Q9NZQ7 19-239); experiment: ELISA, target protein coated, absorbance 450 nm
T4 construct: captured through a His tag in the BLI experiments; also called hPD-L1; B7H1/PDL-1
T4 sequence (Q9NZQ7 19-239 limits assumed): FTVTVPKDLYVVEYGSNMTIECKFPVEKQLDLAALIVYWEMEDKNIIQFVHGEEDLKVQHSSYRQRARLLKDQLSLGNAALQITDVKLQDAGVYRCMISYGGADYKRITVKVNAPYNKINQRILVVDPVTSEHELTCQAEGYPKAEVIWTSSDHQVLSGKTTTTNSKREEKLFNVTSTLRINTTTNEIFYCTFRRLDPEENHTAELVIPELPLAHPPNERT

[5] = target: T2, recombinant human VISTA (His-tagged); experiment: ELISA, target protein coated, absorbance 450 nm; remark: listed apart in the source
[6] = target: T3, recombinant mouse VISTA (His-tagged); experiment: ELISA, target protein coated, absorbance 450 nm; remark: listed apart in the source
[7] = target: T2, recombinant human VISTA (His-tagged); experiment: competition ELISA: VSIG-3 coated, His-tagged VISTA added with the antibody, anti-His-HRP; blocked ligand VSIG-3
Description: Briefly, 96-well plates (Nunc, Denmark) were coated with 1 μg/ml of untagged or Fc-tagged VSIG-3 (R&D Systems, USA) in 1×PBS for 16 h at 4° C. […] Plates were subsequently washed three times with TBS-T and incubated with an HRP-conjugated anti-his secondary antibody for 1 h at room temperature. After washing, plates were developed with colorimetric detection substrate Turbo-TMB (Pierce, USA).

[8] = target: T1, human VISTA expressed on cells; experiment: flow cytometry, FITC anti-Fc detection; HEK293 cells overexpressing human VISTA against HEK293 cells without VISTA
Description: as §1

[9] = target: T2, recombinant human VISTA (His-tagged); experiment: ELISA, plate coated with human VISTA; unit nM from the legend paragraph 697
[10] = target: T3, recombinant mouse VISTA (His-tagged); experiment: ELISA, plate coated with mouse VISTA; unit nM from the legend paragraph 698
[11] = target: T3, recombinant mouse VISTA (His-tagged); experiment: ELISA, plate coated with mouse VISTA; unit nM from the legend paragraph 699
[12] = target: T2, recombinant human VISTA (His-tagged); experiment: BLI (Octet), 1:1 global fit, human VISTA captured
Description: (§2) Finally, the biosensors were incubated for 120 sec in PBS pH 7.2 to obtain the dissociation curves. Kinetic and affinity constants were calculated by global fitting of the association and dissociation data to a 1:1 binding model.

[13] = target: T2, recombinant human VISTA (His-tagged); experiment: ELISA, plate coated with human VISTA; unit nM from the legend paragraph 699
[14] = target: T2, recombinant human VISTA (His-tagged); experiment: BLI (Octet), 1:1 global fit, His-tagged human VISTA captured
[15] = target: T2, recombinant human VISTA (His-tagged); experiment: ELISA, plate coated with human VISTA; unit nM from the legend paragraph 698
[16] = target: T3, recombinant mouse VISTA (His-tagged); experiment: BLI (Octet), 1:1 global fit, His-tagged mouse VISTA captured
[17] = target: T3, recombinant mouse VISTA (His-tagged); experiment: BLI (Octet), 1:1 global fit, mouse VISTA captured
Description: All measurements were performed at 25° C. with agitation at 1000 rpm. […] Sensograms were referenced for buffer effects and then fitted using the Octet QK384 user software (Pall ForteBio, USA).

human PD-L1 [18] = target: T4, human PD-L1; experiment: BLI (Octet), His-tagged human PD-L1 on anti-Penta-HIS biosensor, antibody 500-15.6 nM
Description: as §2

[19] = target: T3, recombinant mouse VISTA (His-tagged); experiment: ELISA, plate coated with mouse VISTA; unit nM from the legend paragraph 697
[20] = target: T3, recombinant mouse VISTA (His-tagged); experiment: BLI (Octet), 1:1 global fit, His-tagged mouse VISTA captured; remark: listed apart in the source

binding result [1]: binds
B1: anti-VISTA clone 4M2-D9 IgG1 (antibody, V domains shown)
VH: EVQLQESGPGLVKPSQSLSLTCTVTGYSITSDYAWNWIRQFPGNRLEWMGFISYSGFTTYSPSLESRISITRDTSKNQFFLQLISVTTEDTATYYCARNHYGGSYWYFDVWGAGTSVTVSS
VL: DIVMTQSPGSLAVSLGQRATISCRASESVEYYGTSLMQWYLQKPGQPPKLLIYAASNVESGVPDRFRGSGSGTDFSLNIHPVEEDDIAMYFCQQSRKVPWTFGGGTKLEIKR

binding result [2]: binds
binding result [3]: binds
binding result (human PD-L1 [4]): binds
B2: anti-VISTA clone 13D5-1 IgG1 (antibody, V domains shown)
VH: QVQLQQSGAELVRPGTSVKISCKASGYTFTNYWLGWVKQRPGHGLEWIGDIYPGGGYTNYNEKFKGKATLTADTSSSTAYMQLSSLTSEDSAVYFCVRSGYYYGSSWYFDVWGAGTTVTVSS
VL: DVLMTQTPLSLPVSLGDQASISCRSSQSIVHSSGNTYLEWYLQKPDQSPKLLIYKVSNRFSGVPDRFSGSGSGTDFTLKISRVEAEDLGVYYCFQGSHVPPTFGGGTKLEIKR

binding result [5]: binds
binding result [6]: binds
B3: anti-VISTA clone 13D5-13 IgG1 (antibody, V domains shown)
VH: B2 VH with T74I, V93D, S99G
VL: B2 VL with I29T, S33I, D46G, G71E

binding result [1]: binds
binding result [7]: binds
B4: anti-VISTA clone 5M1-A11 IgG1 (antibody, V domains shown)
VH: QVTLKVSGPGILQPSQTLSLTCSFSGFSLSTSGMGVSWIRQPSGKGLEWLAHIYWDDDKRYNPSLKSRLTISKDSSSNQVFLKITSVDTADTATYYCARRLDGYNDPYYFDYWGQGTTLTVSS
VL: DVVMTQTPALMSASPGEKVTMTCSASSSVSYMYWYQQKPRSSPKPWIYLTSNLASGVPARFSGSGSGTSYSLTISSMEAEDAATYYCQQWNSNPYTFGGGTKLEIKR

binding result [1]: binds
B5: anti-VISTA clone 4M2-C9 IgG1 (antibody, V domains shown)
VH: B4 VH with V6E, S7C
VL: DIVMTQSPSSLSASLGDTVTITCHASQNVNVWLSWYQQKPGNIPKLLIYKASNLHAGVPSRFSGSGSGTGFTLTISSLQPEDIATYYCQQGQSYPLTFGGGTKLEIKR

binding result [1]: binds
B6: anti-VISTA clone 2M1-B12 IgG1 (antibody)
heavy: not shown
light: DIQMMQSPASLSASVGETVAITCGASENIYGALNWYQRKQGKSPQLLIYGATNLADGMSSRFSGSGSGRQYSLKISSLHPDDVATYYCQNVLSTPYTFGGGTKLEIKRTVAAPSVFIFPPSDEQLKSGTASVVCLLNNFYPREAKVQWKVDNALQSGNSQESVTEQDSKDSTYSLSSTLTLSKADYEKHKVYACEVTHQGLSSPVTKSFNRGEC

binding result [1]: binds
B7: anti-VISTA clone 2M1-D2 IgG1 (antibody)
heavy: not shown
light: B6 light with Q3V, M5T

binding result [1]: binds
B8: anti-VISTA clone 1M2-D2 IgG1 (antibody, V domains shown)
VH: EVKVEESGGGLVQPGGSMKLSCAASGFTFSDAWMDWVHQSPEKGLEWVAEIRSKANNHATYYVESVEGRFTISRDDSKSSVFLQVNSLRPEDTGIYYCTRRDGYYFAYWGQGTLVTVSA
VL: DIVLTQSPAIMSASLGEEITLTCSASSSVRDMHWYQQKSGTSPKVLIYNTFNLASGVPSRFSGSGSGTFYSLTISSVEAGDAAAYYCHQWSSYPTFGGGTKLEIKR

binding result [8]: binds
B9: anti-VISTA clone 4M2-D5 IgG1 (antibody, V domains shown)
VH: QVQLQQSGAELARPGASVRMSCKASGYTFTSYTMNWVKQRPGQGLEWIGFINPDSDYTTYDQKFKDKATLTADSSSSTAYMQLSSLTYDDSAVYYCTRHSYGNYGDYWGQGTTLTVSS
VL: DIVLTQSPKFLLVSAGDRVTITCKASQSVTNDVAWYQQKPGQSPKLLIYYASSRYTGVPDRFTGSGFGTDFTFTINTVQAEDLAVYFCQQDYSSPYTFGGGTKLEIKR

binding result [1]: binds
B10: anti-VISTA clone 4M2-A8 IgG1 (antibody, V domains shown)
VH: QVQLQQSGADLARPGASVKMSCKASGYTFIDYTVHWVKQRPGQGLEWIGFINPSNDYTSYNQKFKDKASLTADTSSTTAYMQLSSLTSDDSAVYYCARHSYGNYGDYWGQGTTLTVSS
VL: B9 VL with L4M, S7A, D32G, S53N, N76S

EC50 [9]: 0.0024 nM
EC50 [10]: 1.6 nM
EC50 [11]: 2.44 nM
Kd [12]: < 0.001 nM
koff [12]: < 1e-07 s⁻¹
kon [12]: 391000 M⁻¹ s⁻¹
EC50 [13]: 0.065 nM
Kd [14]: < 1 pM
koff [14]: < 1e-07 s⁻¹
kon [14]: 343000 M⁻¹ s⁻¹
EC50 [15]: 0.042 nM
Kd [16]: 66.7 nM
koff [16]: 0.022 s⁻¹
kon [16]: 330000 M⁻¹ s⁻¹
Kd [17]: 58.5 nM
koff [17]: 0.0162 s⁻¹
kon [17]: 277000 M⁻¹ s⁻¹
binding result (human PD-L1 [18]): no binding (tested: 500 nM)
EC50 [19]: 3.1 nM
Kd [20]: 60.7 nM
koff [20]: 0.0147 s⁻¹
kon [20]: 243000 M⁻¹ s⁻¹
B11: anti-VISTA clone V4-C1 IgG1 (antibody, V domains shown)
VH: QVQLQESGPGLVKPSDTLSLTCTVSGYSITSDYAWNWIRQTPGKGLEWIGYITYSGYISYNPSLRSRVTISRDTSKNQFSLKLSSVTAADTAVYSCARALYYPWYFDVWGTGTTVTVSS
VL: EIVITQSPATLSLSPGERATLSCRASSSVGYIHWYQQKPGQAPRPLIYATSNRATGIPARFSGSGSGTDNTLTISSLEPEDSAVYYCQQWSSYPPITFGGGTKLEVKR

EC50 [9]: 0.031 nM
EC50 [10]: 0.044 nM
EC50 [11]: 0.18 nM
Kd [12]: 0.125 nM
koff [12]: 5.6e-05 s⁻¹
kon [12]: 450000 M⁻¹ s⁻¹
EC50 [13]: 0.107 nM
Kd [14]: < 1 pM
koff [14]: < 1e-07 s⁻¹
kon [14]: 333000 M⁻¹ s⁻¹
EC50 [15]: 0.03 nM
Kd [16]: 4.26 nM
koff [16]: 0.00067 s⁻¹
kon [16]: 157000 M⁻¹ s⁻¹
Kd [17]: 2.88 nM
koff [17]: 0.00104 s⁻¹
kon [17]: 361000 M⁻¹ s⁻¹
binding result (human PD-L1 [18]): no binding (tested: 500 nM)
EC50 [19]: 0.11 nM
Kd [20]: 3.81 nM
koff [20]: 0.00118 s⁻¹
kon [20]: 311000 M⁻¹ s⁻¹
B12: anti-VISTA clone V4-C9 IgG1 (antibody, V domains shown)
VH: B11 VH with I58V
VL: B11 VL with I4L
